Experiment [1] addresses T1, full-length human 14-3-3σ fused to the C terminus of MBP (human, UniProt P31947 1-248).
T1 chain: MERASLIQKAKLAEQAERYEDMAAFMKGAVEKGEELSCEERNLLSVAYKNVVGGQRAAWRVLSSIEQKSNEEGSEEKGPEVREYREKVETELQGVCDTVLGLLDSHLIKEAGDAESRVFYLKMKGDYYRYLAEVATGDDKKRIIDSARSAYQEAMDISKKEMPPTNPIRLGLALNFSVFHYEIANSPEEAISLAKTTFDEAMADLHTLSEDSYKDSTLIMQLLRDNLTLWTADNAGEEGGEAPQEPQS
Description: FP.

Experiment [2] deals with T2, full-length human 14-3-3γ fused to the C terminus of MBP (human, UniProt P61981 1-247).
T2 chain: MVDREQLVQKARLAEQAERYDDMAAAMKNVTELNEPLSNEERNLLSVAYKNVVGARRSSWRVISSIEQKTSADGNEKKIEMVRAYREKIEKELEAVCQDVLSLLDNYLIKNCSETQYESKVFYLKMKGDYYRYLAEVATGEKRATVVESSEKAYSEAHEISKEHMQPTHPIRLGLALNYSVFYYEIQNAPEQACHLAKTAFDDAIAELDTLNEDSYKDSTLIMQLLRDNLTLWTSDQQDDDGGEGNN
Description: FP.

For experiment [3], the target named is T3, full-length human 14-3-3β fused to the C terminus of MBP (human, UniProt P31946 1-246).
T3 chain: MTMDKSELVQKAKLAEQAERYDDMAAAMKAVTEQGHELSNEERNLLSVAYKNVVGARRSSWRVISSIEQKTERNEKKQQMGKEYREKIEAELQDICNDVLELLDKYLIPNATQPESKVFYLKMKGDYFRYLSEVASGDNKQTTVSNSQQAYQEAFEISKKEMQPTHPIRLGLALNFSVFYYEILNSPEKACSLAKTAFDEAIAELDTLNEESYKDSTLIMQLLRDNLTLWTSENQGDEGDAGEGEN
The experiment in a line: FP.

The target of experiment [4] is T4, unfused 14-3-3τ devoid of the flexible C-terminal tail (human).
T4 chain: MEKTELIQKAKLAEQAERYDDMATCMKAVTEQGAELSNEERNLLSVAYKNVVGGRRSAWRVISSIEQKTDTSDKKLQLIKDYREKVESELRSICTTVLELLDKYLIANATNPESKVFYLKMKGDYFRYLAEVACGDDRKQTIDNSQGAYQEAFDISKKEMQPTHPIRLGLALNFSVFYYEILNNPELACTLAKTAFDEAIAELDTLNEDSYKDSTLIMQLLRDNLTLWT
The experiment in a line: FP.

Experiment [5] deals with T5, full-length human 14-3-3ζ fused to the C terminus of MBP (human, UniProt P63104 1-245).
T5 chain: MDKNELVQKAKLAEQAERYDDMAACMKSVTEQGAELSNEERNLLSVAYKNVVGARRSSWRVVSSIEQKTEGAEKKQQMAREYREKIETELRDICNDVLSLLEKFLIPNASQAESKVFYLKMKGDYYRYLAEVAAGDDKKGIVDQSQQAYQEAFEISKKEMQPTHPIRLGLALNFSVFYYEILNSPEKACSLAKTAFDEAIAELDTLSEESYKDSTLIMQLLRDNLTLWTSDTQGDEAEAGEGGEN
The experiment in a line: FP.

Experiment [6] concerns the target T6, unfused 14-3-3β devoid of the flexible C-terminal tail (human).
T6 chain: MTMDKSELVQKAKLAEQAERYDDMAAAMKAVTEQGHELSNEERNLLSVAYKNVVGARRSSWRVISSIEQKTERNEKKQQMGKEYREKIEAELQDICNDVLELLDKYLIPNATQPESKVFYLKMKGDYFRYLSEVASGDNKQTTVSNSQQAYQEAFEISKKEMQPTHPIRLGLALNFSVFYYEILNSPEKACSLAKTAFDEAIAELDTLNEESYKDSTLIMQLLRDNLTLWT
The experiment in a line: FP.

Experiment [7] deals with T5, full-length human 14-3-3ζ fused to the …. The experiment in a line: FP; with FSC.
Experiment [8] concerns the target T7, full-length human 14-3-3η fused to the C terminus of MBP (human, UniProt Q04917 1-246).
T7 chain: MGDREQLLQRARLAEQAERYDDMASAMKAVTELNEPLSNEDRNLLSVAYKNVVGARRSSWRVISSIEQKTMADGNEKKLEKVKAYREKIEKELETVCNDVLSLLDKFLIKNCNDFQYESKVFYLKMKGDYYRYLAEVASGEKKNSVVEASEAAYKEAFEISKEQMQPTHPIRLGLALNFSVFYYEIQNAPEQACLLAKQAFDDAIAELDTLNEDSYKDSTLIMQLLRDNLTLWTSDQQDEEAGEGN
The experiment in a line: FP.

Non-standard residues stand in square brackets, D forms with d. No end group written: not given here. *: point of attachment. Biotin = O=C1N[C@H]2[C@H](CS[C@H]2CCCCC(=O)*)N1; pT = C[C@@H](OP(=O)(O)O)[C@H](N)C(=O)O; ttds = NCCCOCCOCCOCCCNC(=O)CCC(=O)*

{Biotin-ttds}-RLQRRRE[pT]QV [HPV18 E6 phospho-PBM peptide p18E6]: the Kd was 139 µM in experiment [1]; 11.1 µM in experiment [2]; 42.2 µM in experiment [3]; 42.3 µM in experiment [4]; 22.4 µM in experiment [5]; 42.3 µM in experiment [6]. Moreover, in experiment [7], binding was put at a Kd of 37.3 µM.

Regarding {Biotin-ttds}-SSRTRRE[pT]QL [HPV16 E6 phospho-PBM peptide p16E6], the Kd in experiment [8] is 80.5 µM; in experiment [2], 37.2 µM; in experiment [3], 159 µM; in experiment [4], 135 µM; in experiment [5], 73.6 µM; in experiment [6], 148 µM.

Values taken from paper PMC7961048 (2021).
